{"source": "patent US10172917B2", "about": "“Targeted oesophageal administration of ZN-α2-glycoproteins (ZAG), methods and formulations thereof” (ASTON UNIVERSITY, priority 2012, dated 2019)", "molecules": {"B1": {"name": "zinc-α2-glycoprotein (protein, listed as Homo sapiens)", "chain": "QENQDGRYSLTYIYTGLSKHVEDVPAFQALGSLNDLQFFRYNSKDRKSQPMGLWRQVEGMEDWKEDSQLQKAREDMETLKDIVEYYNDSNGSHVLQGRFGCEIENNRSSGAFWKYYYDGKDYIEFNKEIPAWVPFDPAAQITKQKWEAEPVYVQRAKAYLEEECPATLRKYLKYSKNILDRQDPPSVVVTSHQAPGEKKKLKCLAYDFYPGKIDVHWTRAGQVQEPELRGDVLHNGNGTYQSWVVVAVPPQDTAPYSCHVQHSSLAQPLVVPWEAS", "notes": "Recombinant human ZAG, a 41 kDa protein, produced by HEK293F cells transfected with pcDNA3.1 containing human ZAG"}}, "key": {"ob/ob mice [1]": {"system": "ob/ob mice", "assay": "Oral glucose tolerance test in ob/ob mice after 3 days of oral ZAG", "format": "in vivo, mouse", "description": "Animals were grouped (n=5) to receive either ZAG/PBS (50 μg day^−1), or PBS in their drinking water, the experiment was repeated three times after a power analysis was performed. […] The ZAG was replaced every 48 h. One group of mice receiving ZAG were also administered propanolol (40 mgkg^−1, p.o.) daily. The dose of ZAG was chosen to be the same as that previously administered i.v. (1), so that a direct comparison could be made, between the two routes. Body weight, food and water intake, urinary glucose excretion, and body temperature, determined by the use of a rectal thermometer (RS Components, Northants, UK), were measured daily. A glucose tolerance test was performed on day 3. Animals were fasted for 12 h, followed by oral administration of glucose (1 gkg^−1 in a volume of 100 μl by gavage). Blood samples were removed from the tail vein at 15, 30, 60 and 120 min and used for the measurement of glucose. Urinary glucose was measured by collecting 0.5 ml urine and testing glucose concentration using a Boots glucose monitor. After 8 days of treatment the animals were terminated by cervical dislocation, tissues were removed and rapidly frozen in liquid nitrogen, and maintained at −80° C. […] Animal studies were conducted under Home Office Licence according to the UKCCCR Guidelines for the care and use of laboratory animals."}, "ob/ob mice [2]": {"system": "ob/ob mice", "assay": "Oral ZAG in drinking water to ob/ob mice: body weight, rectal temperature, urinary glucose excretion", "format": "in vivo, mouse", "description": "Obese (ob/ob) mice (average weight 65 g) were bred in a colony, and were kept in an air conditioned room at 22+2° C. with ad libitum feeding of a rat and mouse breeding diet (Special Diet Services, Witham, UK) and tap water. […] Animals were grouped (n=5) to receive either ZAG/PBS (50 μg day^−1), or PBS in their drinking water, the experiment was repeated three times after a power analysis was performed. […] The ZAG was replaced every 48 h. […] The dose of ZAG was chosen to be the same as that previously administered i.v. (1), so that a direct comparison could be made, between the two routes. Body weight, food and water intake, urinary glucose excretion, and body temperature, determined by the use of a rectal thermometer (RS Components, Northants, UK), were measured daily. A glucose tolerance test was performed on day 3. Animals were fasted for 12 h, followed by oral administration of glucose (1 gkg^−1 in a volume of 100 μl by gavage). Blood samples were removed from the tail vein at 15, 30, 60 and 120 min and used for the measurement of glucose. Urinary glucose was measured by collecting 0.5 ml urine and testing glucose concentration using a Boots glucose monitor. After 8 days of treatment the animals were terminated by cervical dislocation, tissues were removed and rapidly frozen in liquid nitrogen, and maintained at −80° C. Future work would be to repeat this work in diet-induced animals as alternative to a model with gene alteration, although previous studies have shown the ob/ob mouse to be a good indicator of potential human treatments. Animal studies were conducted under Home Office Licence according to the UKCCCR Guidelines for the care and use of laboratory animals."}, "human β2-AR": {"molecular_target": "T1, human β2-AR (Homo sapiens, UniProt P07550)", "T1 construct": "expressed in transfected cells; host or cells: CHOK1 (CHO-K1) cells", "assay": "Cyclic AMP production in CHO cells transfected with human β2-AR", "format": "cell-based", "conditions": "30 min incubation", "description": "(§1) FIG. 3C is a graphical representation of the effect of a tryptic digest of ZAG in comparison with intact ZAG on cyclic AMP production by CHO cells transfected with human β1-AR (▪), β2-AR(□) and β3-AR) ( ? ) after 30 min incubation. ZAG (1 mg) was incubated with trypsin (200 μg) in 1 ml 10 mM Tris.HCl, pH8 for 4 h at 37° C. and proteolysis was terminated by addition of the trypsin inhibitor (200 μg). High molecular weight material was removed by a Sephadex G25 column followed by dialysis using an Amicon filtration cell containing a 10 kDa cut-off membrane filter.\n(§2) CHOK1 cells transfected with human β1-, β2- and β3-AR were maintained in DMEM supplemented with 2 mM glutamine, hygromycin B (50 μgml^−1), G418 ([…]) and 10% FCS, under an atmosphere of 10% CO2 in air. For cyclic AMP production cells were grown in 24-well plates in 1 ml nutrient medium, and ZAG, after tryptic digestion as described in the legend to FIG. 3C, was incubated for 30 min. The medium was then removed and 0.5 ml of 20 mM HEPES, pH7.5, 5 mM EDTA and 0.1 mM isobutylmethylxanthine was added, followed by heating on a water bath for 5 min, and cooling on ice for 10 min. The concentration of cyclic AMP was determined using a Parameter cyclic AMP assay kit (New England Biolabs, Hitchin, Herts, UK)."}, "rats": {"system": "rats", "conditions": "rats treated with ZAG; cited from earlier work"}, "β3-AR": {"molecular_target": "β3-AR (Homo sapiens, UniProt P13945)", "sequence (P13945 whole entry)": "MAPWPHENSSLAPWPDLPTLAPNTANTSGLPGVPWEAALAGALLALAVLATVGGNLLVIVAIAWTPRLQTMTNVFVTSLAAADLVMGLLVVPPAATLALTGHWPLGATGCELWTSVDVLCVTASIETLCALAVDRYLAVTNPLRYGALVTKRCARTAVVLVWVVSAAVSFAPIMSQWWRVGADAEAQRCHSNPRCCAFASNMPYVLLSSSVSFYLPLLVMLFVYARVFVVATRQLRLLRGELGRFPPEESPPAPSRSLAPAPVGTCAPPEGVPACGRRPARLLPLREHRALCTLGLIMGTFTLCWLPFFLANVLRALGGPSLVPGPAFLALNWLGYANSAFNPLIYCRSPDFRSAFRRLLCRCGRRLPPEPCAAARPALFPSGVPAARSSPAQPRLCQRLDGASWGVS", "assay": "Cyclic AMP production in CHO cells transfected with human β3-AR", "format": "cell-based", "parameters": "expressed in transfected cells; host or cells: CHOK1 (CHO-K1) cells", "conditions": "30 min incubation", "description": "as §1, §2"}, "murine ZAG": {"system": "murine ZAG", "assay": "Western blotting of murine ZAG in serum and WAT of ob/ob mice", "format": "in vivo, mouse", "conditions": "ob/ob mice dosed orally with human ZAG for 8 days, anti-mouse ZAG antibody", "description": "Tissues were thawed, washed in PBS and lysed in Phosphosafe™ Extraction reagent for 5 min at room temperature, followed by sonication at 4° C. Cytosolic protein (5-20 ug) formed by centrifugation at 18,000 g for 5 min at 4° C., was resolved on 12% SDS PAGE by electrophoresis at 180V for about 1 h. To determine ZAG in serum 30 μl samples containing 20 μg total protein were electrophoresed as above. Protein was transferred to 0.45 μm nitrocellulose membranes, which had been blocked with 5% (w/v) non-fat dried milk (Marvel) in Tris-buffered saline, pH 7.5, at 4° C. overnight. Membranes were washed for 15 min in 0.1% Tween 20 buffered saline prior to adding the primary antibodies. Both primary and secondary antibodies were used at a dilution of 1:1000. Incubation was for 1 h at room temperature, and development was by ECL. Blots were scanned by a densitometer to quantify differences."}, "[3]": {"conditions": "50 μg day^−1 po in drinking water"}}}
{"molecule": "B1", "values": [{"measurement": "insulin response to the glucose challenge", "setting": "ob/ob mice [1]; after 3 days of oral ZAG", "value": "decreased the insulin response"}, {"measurement": "peak blood glucose concentration in glucose tolerance test", "setting": "ob/ob mice [1]; after 3 days of oral ZAG", "value": "reduced peak blood glucose concentration"}, {"measurement": "reduction in the total area under the curve (AUC) during oral glucose tolerance test", "setting": "ob/ob mice [1]; after 3 days of oral ZAG, glucose 1 gkg^−1 po after 12 h fast", "value": 33, "unit": "%"}, {"measurement": "sensitivity to insulin", "setting": "ob/ob mice [1]; oral ZAG 50 μg day^−1", "value": "increased sensitivity to insulin"}, {"measurement": "increase in rectal temperature", "setting": "ob/ob mice [2]; [3]", "value": 0.5, "unit": "°C"}, {"measurement": "reduction in urinary glucose excretion", "setting": "ob/ob mice [2]; [3]", "value": 40, "unit": "%"}, {"measurement": "loss of body weight / difference in body weight between ZAG and PBS groups", "setting": "ob/ob mice [2]; 50 μg day^−1 po in drinking water, after 8 days treatment", "value": 5, "unit": "g"}, {"measurement": "difference in body weight between the ZAG and PBS groups", "setting": "ob/ob mice [2]; 50 μg per day in drinking water, after 5 days of treatment", "value": 3.5, "unit": "g"}, {"measurement": "time of treatment after which increase in rectal temperature became significant", "setting": "ob/ob mice [2]; oral ZAG 50 μg per day", "value": 4, "unit": "days"}, {"measurement": "time of treatment after which reduction in urinary glucose excretion became significant", "setting": "ob/ob mice [2]; oral ZAG 50 μg per day", "value": 1, "unit": "days"}, {"measurement": "cyclic AMP production", "setting": "human β2-AR", "value": "stimulated"}, {"measurement": "rise in body temperature", "setting": "rats", "value": 0.4, "unit": "°C"}, {"measurement": "cyclic AMP production", "setting": "β3-AR", "value": "stimulated"}, {"measurement": "elevation of murine ZAG in serum", "setting": "murine ZAG", "value": "two-fold"}, {"measurement": "elevation of murine ZAG in serum", "setting": "murine ZAG; listed as human ZAG", "value": 2, "unit": "fold"}]}
